Results reported in paper PMC4491210.

Tests used:
[1] = tested on: Cys; conditions: cited from earlier work
[2] = target: HP0377 lacking its own signal sequence (residues 25-221 of native HP0377) with a C-terminal 6 His tag (Helicobacter pylori 26695); experiment: cross-linking; glutaraldehyde 0.001-0.1 % v/v, HP0377 2.5 mg/ml, room temperature, 20 min, 0.05 M bicine-NaOH pH 8.5, 0.1 mM DTT, 0.4 M NaCl, quenched with ethanolamine-HCl; SDS-PAGE; monomer to dimer
[3] = target: HP0377 lacking its own signal sequence (residues 25-221 of native HP0377) with a C-terminal 6 His tag (Helicobacter pylori 26695); experiment: SEC; Superdex75 HiLoad 16/600, 20 mM Tris pH 8, 150 mM NaCl, absorbance at 280 nm, calibrated with Bio-Rad Gel Filtration Standard; monomer and dimer peaks
[4] = target: Cys89 (UniProt position 89, FGRNGCSYCER); experiment: UV-vis; conditions: 25 °C; 200 mM NaCl; 10 mM Tris, 10 mM sodium citrate, 1 mM EDTA; Reduced protein referenced to oxidized protein; about 20 µM protein
[5] = target: Cys92 (UniProt position 92, NGCSYCERFKK); experiment: UV-vis; conditions: 25 °C; 200 mM NaCl; 10 mM Tris, 10 mM sodium citrate, 1 mM EDTA; Reduced protein referenced to oxidized protein; about 20 µM protein

Substance | pKa [1] | further results
DsbA (Escherichia coli) | 3.5 | 
DsbC (Escherichia coli) | 4.1 ± 0.3 | 
HP0377 lacking its own signal sequence (residues 25-221 of native HP0377) with a C-terminal 6 His tag (domain or fragment) |  | stoichiometry N [2]: 2; stoichiometry N [3]: 2
CcmG (DsbE) (Escherichia coli) | 6.8 | 
HP0377 (CcmG/DsbE/ResA-like thiol:disulfide oxidoreductase) (Helicobacter pylori 26695) |  | pKa [4]: 3.56 ± 0.11; pKa [5]: 9.23 ± 0.21
ResA (Bacillus subtilis) | 8.8 | 
